# Assay: soluble on expression in E. coli; label from the status in PepcDB or PDB records
row,Sequence,soluble on expression in E. coli
1,SLNAFDELVFAPMYVTSVDGRQAGVFHAHKGRRLIAAHRKAGTTPFVGASRVNNSITGFADTPALFPGGWITLIYNGDGGTGHAKYQPAPFNASDDVIALEPISKQATEPALLLIASMLTLQCVPKFGFGYKLTLHRLDRQKIMIPVLTNADGEQVVNWSGLTRHGKRLLNEAKTRARAVRELTSTAKPKLPELNYMPMFITDVFESMNAAGKWFDFAKACLSGKPFAPYIARSGGGNGVGSFVPHQGFAPPNAGNAITIGVSTSTVFYQPVPFYTSKEIQVLRHHKLTADSGLILVALLREQMGKFQWGNGASLERLKATRIMVPAMVGADGEDVVDWDGLSRYGRALRARVELAINAVL,not soluble
2,SLNVVLIVEDEILEQEFLKTMVLGELSPEDKVLTTESGIQAVQLAKQHRPNIIIMDLMIAEVDGLTAIQDIRKFLPNACITILSAYSDFSYAQKAINLKVFEYLLKPVKPSAFKEIFKKMLEIAHEESMISEPIEKTFLPLQEEHQSFIQESVTYIQEHFKEKLTLEMTASRVFMNPKYFSRVFKKEMGISFTEFIIQLRIQYACRLLETTNYPAYRISSECGFSDPSYFNRVFCAQLNMTPQTYRKNSQAQQHEG,soluble
3,SLQSYQSVDSIRAAALATVGPDAEAEATLDPGLRMPGCPIALQAKPTGTNTVEVACPQPAGWRLFVPLKVRRNQDVLVLRRGISAGETISLADISIEKRDAARIVGAVLADPVAAVGKTARRILPAGSLLSANDLVSQRLVRRGDTVPLVSRNGGLEVRMSGRALSDAGENERVSVENSSSRRVVQGIVEASGTVVVSR,soluble
4,SLQTNKASTGLKTDQSFNNSLSESVKLKEIADIYPTNTNFLTGIGIVAGLAGKGDSIKQKDLIIKILEENNIINEIGSNNIESKNIALVNVSLQVKGNTIKGSKHKACVASILDSKDLTNGILLKTNLKNKEGEIIAIASGITQPNNKLKGSGYTIDSVIINENQNINHSYNIILKKGNYTLINRIHKILTSKKINNKIKSDSTIEIEAKNISLLEEIENIKIETNPKILIDKKNGIILASENAKIGTFTFSIEKDNQNIFLSKNNKTTIQVNSMKLNEFILKNSNNLSNKELIQIIQAAQKINKLNGELILEEIDGNQN,soluble
5,SLRKVGLTALEWLKQHPEIKQHKESSLYEQLFASQQWQQAQTIGMIRSLPLELSTQPIFERAMQESKQVAVPRTFKGGKMHFYQVFPETVYDTSAFGVEEPPLTAAEITATAIDLLIVPGIVFNRAGYRIGFGGGFYDRYLEHFSGHSCSLVFSEQLHEQWQPEAFDQPIEQLFIQ,soluble
6,SLRLKLSLTPKQDFSFDKINKHTIQGFIYSLLKDTEFGEMHNQPRFKFWCFSDIFPPNDFVKGEDKYLLISSPREEFINVLYERLDNLEEVNLNNFKFEVSELKKFDLKVKNKFITGSPIVLYKDKDRGEYIKFYDDDFDLMFFVQRLQDNAVKKYKAFYNEEPVLNGFIFDRISPRVRNGRVDVYVRIAKKGREFLVVGTTWKLLEKIKIRKEERKFYKFIMDCGLGEKNSLGFGFINPIK,not soluble
7,SLRLTQGLFRFPLAGLLCLSTAAFAESQLSVRVTPANAALKANIEAYVGSLGERDEAALQRFRRNAEAQAEKAAQALGYFQAQIDSEVKDGKPPKLTLKVVPGEPVRLRQVNIQVLGEAASLESFRLPSGKQLKPGAKLNQGVYEDAKRLIQNQASRYGFFQGRFSTQRLSIDPRAGIADIDLVYDSGQRYTFGKVSFDGDSIIEEELLRRMVPFKAGQPYDSELIAELNQNLQSSGYFEGVRVDAAPTQAQADGARQAIPVAVRLEARKPRTMGVGLGFSTDVGARARFNWTRHWVNAEGHSLGFESEISAPRQNVGAWYEIPLDPPLTDKLRFTSGYQFEDLVDTESKLLTLGGEWHSKRPDGWQRVVSLNWMREEYKLGDDSGLSSFLMPGIGYSLLETDNKVDPSHGYRLQFNVKGAKEGLLADADVLHVDAMAKGLTSFAGGHRLLGRLQVGGIATNDYKSIPPSLRFFAGGDQSVRGYDYRTLSPENSDGDKIGGRYMIAGSVEYQYPLAERWRLATFVDQGNAFNSLDFPSIKTGVGFGVRWVSPVGPLRLDLAHALDDDGGFRLHFSMGPEL,soluble
8,SLSDTLNSLQLGERPEGRTLLTASWVVGHKDGSHRLLKNGEVVFENGEILFVGHGFPGEVARRIDFGNALVSPGLIDLDALSDLDTTILGIDHHPGWAKGRVWPRSYVEAGPYEMYSAEELAFQKRFAFGQLLLNGITTAAPIASLFYRAWGETVAEFEAAADAAGELGLRVYLSPAFRSGGMVLEEPGRMFPVFDEERGFQGLKEAIAFIEKQSGRHGDLVRGMLAPDRVETSTLGLIERTDAAARELGCKFRLHMAQGVMEVDTVRKLHGSTAPVWLAKAGLLSERLIAPHATNATEEDLALYAENGVSIVHCPLVSSRGGSTLSSFSSCRKRGINIAMGTDTAPADMFMNLLVGLITCRINDGAPDQIRCADLFDAATLGGARALGRSDLGHLSSGARADIAVFDLDDAVMAPSVDPITTLVTGGSGKVTRAVFVDGRLSMRERQVAHIDMRRAREQAQAQFDRLIAKYPERSWANPPVSEIFPPSYQVEVAQHG,not soluble
9,SLSETLYTGISQLATPRPGPQRGAAMGDLHIIEDAALLVRGGVIQWVGPRAAAPTATHVHDLGGRAVVPGLVDPHTHAVWAGDRLSDWEAKLQGATYEEILARGGGIRSTMRATAAADVAELVALARPRLASLRASGATTTEVKSGYGLDFDAELRMLRAVRELQAEFELRPTLLIHVPPQEGRAEYVVGVCAELIPQVAREGLAEALDVFCEKEAFSVEETRTMFAAAQAHGLRVKLHADQFHAIGGTELACEVGALSVDHLEASGAAQIAALAASETVATILPGVTLHLGLPAAPGRQLIDSGAIVAIGTDLNPGSSPLFSTQLALALAVRLCLLTPAEALSACTVNAAYALGLSDRGSLSAGQRADFLVLNGQDWREVAYTLGGNAVAEVYLAGAQL,soluble
10,SLSEVEIEEVRLNPDEPQYTMDGLDGRRFDEQGYLKEHLSSKGAKQFPESSDIHFDSPHLVFFQEGRLLYEVGSDEAVYHTENKQVLFKNNVVLTKTADGKRQAGKVEAEKLHVDTESQYAQTDTPVSFQYGASHGQAGGMTYDHKTGMLNFSSKVKATIYDTKDM,not soluble
11,SLSTLKILLCTDNHLGYKENNSIQKKDSFNSFEEILFIAKKLNVDMILNSGDLFHKNKVSEYTLFKSMYIIRKAGKKLIPFYTIHGNHDYPYSYEYISPLDILNISNLINYIGKNNLNNIVVKPILLNKYKSKISIYAVGWMKDERLYRSFENNEVKFILPSDYKNRINILVLHQNRYIRNAYGNNTKNFIKESFIPKFIDLVIWGHEHFSKPYLEESILNSFYNIQLGSSVRTSICPNEYGDKFIGLLEIKNQRFRFLKINLETVRPFEMKDIKLADYELNFKSESVLKEFLHEQTHAILEKIKNNFSHE,not soluble
12,SLTAISKMTRGLDYYEVMGLTRSANDIDIRRAYRRLALKYHPDINKDGAAGDEFLRICEAYEVLCDPKTKGFYDLYGEDALKDGISDGNGGLKGPMYRFNPEESPKAVFERFFGTANPYEALEALSNQFESMTSEEAPARGKNKVYPLELTLEEIFHGCLKKVAHKRKVLLFSGEYVEEERQLTVDVKPGLPTGTRFVFEGEGNKTPKKEPGPVVFVLKPKPHPRFVRRGSDLVHKVTLPLHHALIGTTLDIRTLDDRDLKVPISDIMRPGSSLTVPGEGMPLPATPSARGNLVIEIDLLFPTHLTETQKMLLRSAFFLPPPTEQNEETKKALRDYEAAFKHDLKGWATVFKRL,not soluble
13,SLTKPIGEKADPERLAAFLNEKGGNALSHLGFLGDKRFYFSSDGNALLLFGKIARRLVVLGDPSGQRESFPLVLEEFLNEAHQKGFSVLFYQIEREDMALYHDFGYNFFKLGEEAYVDLNTFTLTGKKKAGLRAINNRFEREEYTFHVDHPPFSDAFLEELKQISDEWLGSKKEKGFSLGFFDPSYLQKAPIAYMKNAEGEIVAFANVMPMYQEGEISVDLMRYRGDAPNGIMDALFIRMFLWAKEEGCTSFNMGMAPLANVGTAFTSFWSERFAAVIFNNVRYMYSFSGLRAFKEKYKPEWRGKYLAYRKNRSLSVTMFLVTRLIGKSKKDSV,soluble
14,SLTNITQCKNRRCGGELGDFTGYIESPNYPGNYPANTECTWTINPPPKRRILIVVPEIFLPIEDDCGDYLVMRKTSSSNSVTTYETCQTYERPIAFTSRSKKLWIQFKSNEGNSARGFQVPYVTYDEDYQELIEDIVRDGRLYASENHQEILKDKKLIKALFDVLAHPQNYFKYTAQESREMFPRSFIRLLRSKVSRFLRPYK,soluble
15,SLTRLEALKNIPRPAEECVEKTLNGEVPVDLFIARGHPNVRASNKRTLEVTKDVYLTRRGDCIIACCAEKAAGELSATVLEALMRSGLVVLIIDAGVVWDYVIGITPRSKPASKWRLVARKSNYVDDSTIAILADKAAYDLDRTLIRELKRGVPVRIIVGVCPGDSI,not soluble
16,SLVNPNQFKPLIVEQAKKQTGLDLVIEGDIGWQFFPSIGFELGKTELKNPQGFASPNLFKVESVGIDVSVMPLLDKQLKIGNIRLDGAEFHLETLKDGRSNLDALTQAQSKPASAPATTDSAPASQPSSSEPAAAWSIELGGVSVSNAVLEITDKKAGSHTKLYDVQLSVAEFVPDNWTKATFAAKGDKDQQKFAAQGEAEVRLSADFKQYALRNINLDASFSDPSNQIDSAKLKLDTFEFDKANALTFSVAGKAADMKLNAQGSASLMVNQAISKVGLDALKLQAELEGAALPQSPMKLSLDSQIAFDLTQNHLSVLLNKLTANALSFDGKADVTLADIPKVRFNLHSPEIDLDAFLGTKAQESQPAPAKEAAASSSSAPATNAPAEVEPDLSALKALDVAGEISIDKFKASNAHLQNVKANFAVNRGVVDLKSFTANLYQGSVQASAQVDARKTPATYSVKKQIKGVQVKPLLKDVLNNEMLEGTGNIDVNVQGQSLTPSGIQKNLVGTVAINFADGAVKGINVAHLIRTHYAKIKGQNVEEADAVKKTDFSAMTTTLKLNKGEVTTNDLNMQSPLLRIHGEGKANYLQQNVDFLVRTSIVGTLEGQGGKSLDELRDVTIPINISGAWSDPKFRLVFDDVLKQKAKKEVDRGVEKLTDKIKDEDTKKAVDGLLKGLFN,soluble
17,SLYANYKRVYENEALETLKVYTTFLRNALIEVNTLMVHSQHFYKSFMGNLKYILDSVAVNKLKSNYNKDMPVVVVSAGPSLEKNIRFLKDCQDKCIIITGGRTLKTLLDLDIKPDYVCVVDPDVPAYDVMRGTFDCTAPLLFCEYTYYEILRDYKGEKIFFNDIGMLGLQKEFLNYDVDNIFEGGSVAHVCAGLGVYIGGDPIIFIGQDLAYTNDKAHADSAGDTNVEGDKKIVYVEDINGDIIKSDSVLNFYRIKLEEMTQLFKENNFINSTEGGANIKGTKIIPLKEVLKKFCLNKKKDYTLGENIGKYVSREQVVCKLMDAKKIMNKVKKEIEASIDLCSEFLEKENRWNKTIIDNINRKLSKTDKLINSSIGEMEFMRNLILPNIYESSMNKEYKQKYNETEKEKIKRVYKKNILLYNGIKTSIMEAGPEIEKCIKSLKES,not soluble
18,SMAPKPGLDFSPFDFAHFGFPSDNSGKERSFQAKPSPKLGRHVYSRPKVDIQKICIGNKNIFTVSDLKPDTQYYFDVFVVNINSNMSTAYVGTFARTKEEAKQKTVELKDGKITDVFVKRKGAKFLRFAPVSSHQKVTFFIHSCLDAVQIQVRRDGKLLLSQNVEGIQQFQLRGKPKAKYLVRLKGNKKGASMLKILATTRPTKQSFPSLPEDTRIKAFDKLRTCSSATVAWLGTQERNKFCIYKKEVDDNYNEDQKKREQNQCLGPDIRKKSEKVLCKYFHSQNLQKAVTTETIKGLQPGKSYLLDVYVIGHGGHSVKYQSKVVKTRKFC,soluble

# Source: the DeepSol protein solubility set
